# Molecular target: mPiezo1-ALFA_(2420)-HRV3C-GFP (mouse (printed only as mPiezo1)) (UniProt E2JF22)
# Assay: SEC; Superose-6 (10/300 GL) in 150 mM NaCl, 20 mM tris pH 8, 0.025% C12E10, 4°C
# Details: remark: other sources report otherwise
substance,measurement,value
"mPiezo1-ALFA_(2420)-HRV3C-GFP, E2JF22 1-2547",stoichiometry N,3

# Reference: paper PMC13232553
